# Measurements: the nanobody polyreactivity screen of Harvey et al. (2022)
# Test: yeast display, Sf9 membrane polyspecificity reagent, FACS + sequencing; frameworks hold sequencing errors
# Summary of the method: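 Nanobodies from a synthetic yeast display library (Saccharomyces cerevisiae BJ5465), induced 36–48 hours with galactose, were stained 1 hour at 4 °C with 10% biotinylated, detergent-solubilized Sf9 membrane reagent, enriched on streptavidin microbeads, then FACS-sorted. Anti-HA (expression) and streptavidin (reagent binding) fluorescence set low and high (top ~1%) gates. Polyreactivity labels come from the gate of origin. Genes were colony-PCR amplified, MiSeq 2 × 250 sequenced and filtered by CDR length.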
row,Sequence,polyreactivity (PSR sort gate)
1,QVQLVESGGGLVQAGGSLRLSCAASGFTFLPYVMGWYRQAPGKERELVAGITRTGSTNYADSVKGRFTISRDNAKNTVYLQMNSLKPEDTAVYYCAARLKYWGDYYYWGQGTQVTVSS,low polyreactivity
2,QVQLVESGGGLVQAGGSLRLSCAASGFTFLSYAMGWYRQAPGKERELVAAISRSGGSTYYADSVKGRFTISRDNAKNTVYLQMNSLKPEDTAVYYCAARSAFRNQFSRNNYWGQGTQVTVSS,high polyreactivity
3,QVQLVESGGGLVQAGGSLRLSCAASGFTFLWYAMGWYRQAPGKERELVAGISSDGSTYADSVKGRFTISRDNAKNTVYLQMNSLKQEDTAVYYCAAVNNSSIRDNDYWGQGTQVTVSS,low polyreactivity
4,QVQLVESGGGLVQAGGSLRLSCAASGFTFLYNAMGWYRQAPGKERELVAAIDSGGNTNYADSVKGRFTISRDNAKNTVYLQMNSLKPEDTAVYYCAADVVSGGQGTADYDYWGQGTQVTVSS,low polyreactivity
5,QVQLVESGGGLVQAGGSLRLSCAASGFTFNAHAMGWYRQAPGKERELVAVITRSGGRTYYADSVKGRFTISRDNAKNTVYLQMNSLKPEDTAVYYCAKEGPSRVYQGTDSASDYWGQGTQVTVSS,high polyreactivity
6,QVQLVESGGGLVQAGGSLRLSCAASGFTFNAYAMGWYRQAPGKERELVAAINVSGGITYYADSVKGRFTISRDIAKNTVYLQMNSLKPEDTAVYYCAADVEWTSRGSYYRYYYWGQGTQVTVSS,low polyreactivity
7,QVQLVESGGGLVQAGGSLRLSCAASGFTFNAYAMGWYRQAPGKERELVAAINVSGGITYYADSVKGRFTISRDNAKNTVYLQMNSLNPEDTAVYYCAKGLDVVQRSEFDYWGQGTQVTVSS,low polyreactivity
8,QVQLVESGGGLVQAGGSLRLSCAASGFTFNFNAMGWYRQAPGKERELVAAIRWSGGNTYYADSVKGRFTISRDNAKNTVYLQMNSLKPEDTAVYYCNRVGYQSMNYWGQGTQVTVSS,low polyreactivity
9,QVQLVESGGGLVQAGGSLRLSCAASGFTFNGNAMGWYRPAPGKERELVAAITRTGTDTSYADSVKGRFTISRDNAKNTVYLQMNSLKPEDTAVYYCAAPPYNGYRYGTTGYYWGQGTQVTVSS,low polyreactivity
10,QVQLVESGGGLVQAGGSLRLSCAASGFTFNKNAMGWYRQEPRKERELVAAISSSVGSTRYADSVKGRFTISRDNAKNTVYLQRNSLKPEDTAVYYCAVYVTPHSGWWLYDYWGQGTQVTVSS,high polyreactivity
11,QVQLVESGGGLVQAGGSLRLSCAASGFTFNRNAMGWYRQAPGKERELVAAISRGGSTSYADSVKGRFTISRDNAKNTVYLQMNSLKPEDTAVYYCATYFRVYYSQYDYWGQGTQVTVTS,high polyreactivity
12,QVQLVESGGGLVQAGGSLRLSCAASGFTFNRNAMGWYRQAPGKERFVAAITGSGASTYYADSVKGRFTISRDNAKNTVYLQMNSLKPEDTAVYYCNAEYYAGRYRYDYWGQGTQVTVSS,high polyreactivity
13,QVQLVESGGGLVQAGGSLRLSCAASGFTFNRYAMGWYRQAPGKERELVAAITRRGGSTYYADSVKGRFTISRDNAKNTVYLQMNSLKPEYSAVYYCNVDFQAYGIPMDYWGQGTQVTVSS,high polyreactivity
14,QVQLVESGGGLVQAGGSLRLSCAASGFTFNWNDMGWYRQAPGKERELVAAISGGASTYYADSVKGRFTISRDNAKNTVYLQMNSLKPEDTAVYYCAADLDEWGYLFVYWGQGTQVTGSS,low polyreactivity
15,QVQLVESGGGLVQAGGSLRLSCAASGFTFNWNTMGWYRQAPGKERELVAAISSGGITYYADSVKGRFTISRDNAKNTVYLQMNSLKPEDTAVYYCNVRPFRPHNRYGYWGQFTQVTVSS,high polyreactivity
16,QVQLVESGGGLVQAGGSLRLSCAASGFTFNWYAMGWYRQAPGKERELVAAINSSGGNTYYADSVKGRFTISRDTAKNTVYLQMNSLKPDDTAVYYCVFVYVYDYYYWGQGTQVTVSS,high polyreactivity

row,Sequence,polyreactivity (PSR sort gate)
1,QVQLVESGGGLVQAGGSLRLSCAASGFTFNYNAMGWYRQAPGKERELVAAISASGGTTYYADSVKGRFTISRDNAKNTVYLQMNSLKPEDTAVYYCAAPKLDDYDYWGQGTQVTVSS,low polyreactivity
2,QVQLVESGGGLVQAGGSLRLSCAASGFTFNYYAMGWYRQAHGKEREFVAAISRGGGRTYYADSVKGRFTISRDNAKNTVYLQMNSLKPEDTAVYYCAAQSVPYAYRLASYDYWGQGTQVTVSS,high polyreactivity
3,QVQLVESGGGLVQAGGSLRLSCAASGFTFNYYAMGWYRQAPGKERELVAAITSSGGSTYYADSVKGRFTISRDNAKNTVYLQMNSLKPEDTAVYYCNAAVYAHRYIYGFDYWGQGTQVTVSS,high polyreactivity
4,QVQLVESGGGLVQAGGSLRLSCAASGFTFNYYTMGWYRQAPGKERELVAAISGSGVSTYYADSVKGRFTISRDNAKNTVYLQMNSLKPEDTAVYYCNKLFGIYWGQGTQVTVSS,high polyreactivity
5,QVQLVESGGGLVQAGGSLRLSCAASGFTFPGYAMGWYRQAPGNEREFVAAITWSGGRTYYADSVKGRFTISRDNAKNTVYLQMNSLKPEDTAVYYCAAVYRGTWYDYDYWGQGTQVTVSS,high polyreactivity
6,QVQLVESGGGLVQAGGSLRLSCAASGFTFPHYMGWYRQAPGKERELVAAINVSGGSTSYADSVKGRFTISRDNAKNTVYLQMNSLKPEDTAVYYCAKDLRFRLFSYPSDYWGQATQVTVSS,low polyreactivity
7,QVQLVESGGGLVQAGGSLRLSCAASGFTFPIYAMGWYRQAPGKERELVAAITTRGGRTYYADSVKGRFTISRDNAKNTVYLQMNSLKPEDTAVYYCTTRGRRTDYDYWGQGTQVTVSS,high polyreactivity
8,QVQLVESGGGLVQAGGSLRLSCAASGFTFPSNGMGWYRQAPGKERELVAVIDWSDDSTYYADSVKGRFTISRDNAKNTVYLQMNSLKPEDTAVYYCNARHYLYHGYIVPKYSYGYDYWGQGTQVTVSS,low polyreactivity
9,QVQLVESGGGLVQAGGSLRLSCAASGFTFPSYAMGWYRQAPGKERELVAAISYRGGRTYYADSVKGRFTISRDNAKNTVYLQMNSLKPEDTAVYYCAAKGWYFGYGRYGYWGQGTQVTVSS,high polyreactivity
10,QVQLVESGGGLVQAGGSLRLSCAASGFTFPSYDMGWYRQAPGKERELVAAISWSGTSTYYADSVKGRFTISRDNAKNTVYLQMNSLKPEDTAVYYCNAQYSYLWGEYGYWGQGTQVTVSS,high polyreactivity
11,QVQLVESGGGLVQAGGSLRLSCAASGFTFPVNAMGWYRQAPGKERELVAAIRWIGGDTYYADSVKGRFTISRDNAKNPVYLQMNSLKPEDTAVYYCAAEDTDDYSIWYEYWGQGTQVTVSS,high polyreactivity
12,QVQLVESGGGLVQAGGSLRLSCAASGFTFPVNTMGWYRQAPGKERELVAAISTSGAGTYYADSVKGRFTISRDNAKNTVYLQMNSLKPEDTAVYYCNADSQPGPYPGIRYDYWGQGTQVTVSS,high polyreactivity
13,QVQLVESGGGLVQAGGSLRLSCAASGFTFPVYAMGWYRQAPGKERELVAAISSGGRTDYADSVKGRFTISRDNAKNTVYLQMNSLKPEDTAVYYCNKARSDHDGRNDSWGQGTQVTVSS,high polyreactivity
14,QVQLVESGGGLVQAGGSLRLSCAASGFTFPWYAKGWYRQAPGKERELVAAITSGSSTYYADSVKGRFTISRDNAKNTVYLQMNSLKPEVTAVYYCAKDGGWSRLHYNYWGQGTQVTVSS,high polyreactivity
15,QVQLVESGGGLVQAGGSLRLSCAASGFTFPWYAMGWYRQAPGKERELVAAISTSGGSTYYADSVKGRFTISRDNAKNTVYLQMNSLKPEDTAVYYCAVGRKFGRYRVPFVVPYEYWGQGTQVTVSS,high polyreactivity
16,QVQLVESGGGLVQAGGSLRLSCAASGFTFPYAMGWYTQAPGKERELVAGISWSGGSTYYADSVKGRFTISRDNAKNTVYLQMNSLKPEDTAVYYCNKYVQSGGTYDYWGQGTQVTVSS,low polyreactivity
